The DeepSol protein solubility set

Test: soluble on expression in E. coli; label from the status in PepcDB or PDB records

Sequence	soluble on expression in E. coli
MFEALKEVLGEINSKLAAVNNELSSKIMSENIVSTRPVAQAQYCGPYKLEKTLGKGQTGLVKTGTHCITGRKVAIKIVNKEKLSESVLQKVEREIAIMKLIEHPHVLHLYDVYENKKYLYLLLEHVSGGELFDYLVRKGRLMSKEARKFFRQIISALDFCHAHNICHRDLKPENLLLDERNNIKVADFGMASLQVEGSMLETSCGSPHYACPEVIRGEKYDGRKADVWSCGVILYALLVGALPFDDDNLRNLLEKVKRGVFHIPHFVPADVQSLLRAMIEVDPGKRYSLADVFKHPWVSGTTKADPELELPMSQVVQTHVIPGEDSIDPDVLRHMNCLGCFKDKQKLINELLSPKHNTEKMVYFLLLDRKRRRPAQEDDTEIVLRGAAQNNDPPKKRTDSSRTSRYPMGSIADGSPINPRKTYGRNQKSGRHSSLGGSPTESPRSSTRDLFGSSSSGSYSARAGEDRDRGRSASRSTNSYHYYTQPVDPQTLAEAARHVRDAQERRESRDSGRGSSRKESKDRSDKSASSSSCKNDASSTSSVPHKYSPPSVMSESVVVSSSTMNSTNSSTNSLIAGNSQTSIGSTSGPWRSKLNNIKNSFLGTPRFHRRKMSNGTAESDSEDSQMIDTTDLVKKSWFGSLASSMSVERDDTHCVPVQGKTLNSIKAELIRAFLQIHELSHSVVGQNCFRVEYKRGPTVGGSVFSRGIKMNVDIIPSPQQVVIAGETPTYVVQFVLLAGPVRRFKRLVEHLSAILQNSTQQRADRQQQAALMVRPRRLSDSSVGSACSDSESNASSINMIARHSDKTETTSATSSDPYGPSPSMRSVGSGTANSYKSPTPHRRNTTAVTASSSSASNRYGPSSSSSGSYSNNADYSYHPEYSQRSNGSSAPKNQYSPGSQRSFAFSMFNKADKV	not soluble
MFFERHGGGERAILVHLDGQDPEAREDPQEFQELALSAGAETVAFVSVPRHRPTAKYLVGSGKVEELRDLVKAEQVDLVIFNHILTPSQERNLERVFECRVIDRTGLILDIFAQRARTHEGKLQVELAQLEHMSTRLVRGWTHLERQKGGIGLRGPGETQLETDRRLLRVRLRQIKARLEKVRSQREQARRGRKRADIPSVSLVGYTNAGKSTLFNAVTASDVFAADQLFATLDPTLRRLELDDLGPIVLADTVGFIRHLPHKLVEAFRATLEESSNSDLLLHVIDAHEPERMAQIEQVMVVLGEIGAQDLPILEVYNKLDLLEGVEPQIQRDPDGKPQRVWLSARDGQGLDLLKQAIAELLGEDLFVGTLRLPQRFARLRAQFFQLNAVQKEDHDDEGVSLLAVRLPRAELNRLVSREGMQPSEFIEQHTLQLEHHHHHH	soluble
MFIKGVILSSYGVNGYARVKSISNNFCDFINLKNNKVLLKKSNSSSVEVKVVDVNIKGNSLFLKFEEIDTPEAVRPLIGFELWVDDSLASSLKEGEYYLGKLIGYAIVNNNKKLGEVVAFFEYLNSVFLEVRVGIKFFFIPFLSIYIGDINTQEKTIELKVLDLLKLEHHHHHH	not soluble
MFKFLMIISMSKHIKRAAKNREDLLEAAVEMFKTHGMMVPLQVIIDHANVGRATFYRNFADRKMLVYALLEQSLVKLKQRTQLYQTYPDGLIRLIQSHVNHLNHLSALMEYWRVLDYSDTSLQALIQQHQRIIQPLIDQAILHKVCRPDFNFEDYRSIVTMLSSSFRGHTEQEQIRMASRVIDLLLNGICLNQEESHG	not soluble
MFKKLLHSLFAGLTFMAAVAAVPAHAQEADAQTTVKTAVDDVLATIKGDSDLRSGNMQKVFQLVDQKIVPRADFKRTTQIAMGRFWSQATPEQQQQIQDGFKTLLVRTYAGALANVRNQTVSYKPFRAAADDTDVVVRSTVNNNGEPVALDYRMEKSANGWKVYDINISGLWLSETYKNQFAEVISKRGGVSGLVQFLDERNAQLAKGPAKLEHHHHHH	soluble
MFKRLLMVALLVVAPLANAADQTNPYRLMNEAAEKTFNRLKSEQPKIKQSPDYLRTVVREELLPYVQVRYAGALVLGRYYKDSTPAQRDAYFKAFEAYLEQAYGQALAMYNGQNYQIAPEQPLGNADIVSIRVTIVDNGGRPPVRLDFQWRKNSKTGNWQAYDMIAEGVSMITTKQNEWASILRQKGVDGLTQQLESSAKQTITLDQKKLEHHHHHH	soluble
MFMFEKPHGMRDTLPGLYETKKKVRRSLTDLIDKWGYQFMETPTLEFYDTVGVQSAIEEQQLFKLLDQDGKTLVLRPDMTGPIARVAASKLLKHGHPLRVGYAANVFRAQEREGGRPAEFEQVGVELIGDGTTSADAEVIALVVGALKNAGLASFKIAIGHAGIADALFVEVLGNVERADVLRRFLYEKNYVGYREHVKSLPLSSIDKSRLLELLELRGGIEVCGRAEEIVDSAQGKSVVDELKALWDILEDYGCTENVRLDLNMVSHMSYYTGILFEVYAENVGFVIGSGGRYNKLLGHFDSPAPATGFGLRIDRLIEALHMKDEPCEIDAVIFSKEQRAQAIAYANEERMKGNKVVLQDLSGIENIDQMTKSFANVTYFIGARKEEQNG	not soluble
MFQLPILNFSPQQVAGVCETLEESGDVERLGRFLWSLPVAPAACEALNKNESVLRARAIVAFHGGNYRELYHILENHKFTKESHAKLQALWLEAHYQEAEKLRGRPLGPVDKYRVRKKFPLPRTIWDGEQKTHCFKERTRHLLREWYLQDPYPNPSKKRELAQATGLTPTQVGNWFKNRRQRDRAAAAKNRLQQQVLSQGPGRVLRSEGEGTPEVLGVASSPAASLSSKAATSAISITSSDSECDI	soluble
MFQNLLENSKKFWIVLEPYGKFKKMLLRDLRGETHRGETRRGETRRGETHRGETHRGETHRGETHRGETHRGETHRGETYRGETHRGETHRGETHRGKTQNFGGKFKFSVKNILAGNLNFLKKIFWREI	not soluble
MFQRLFGRERHANRAITDALYAQIVAAARQTVFYSHWNVPDTPLGRFEMLSLHMFLFQHRLRGEGGVAQEIAQVLIDEFFLDVDHSLRELGIGDVGVPKRMKKLAKMFYGRTAAYDDALDRNDRDGLTAALARNVRPDAGTWPEAPQLADYVADACRQLAAQPSQSIVSGTAVFPLAKGGALEHHHHHH	not soluble
MFRKESTILVLGSKVRGAQPGHVLRWRLEHALELSRHTTGPIVVSGKGEAYVMDDWLIRHGVDYRRLIVEPEATSTNENIENAHALLPDTHEWLVVTSDFHKLRTLAWARHLGVPIRVSSAVTKPPFRVNNFVRECFALPHSLLRIAWRRLLAAAALEHHHHHH	not soluble
MFSFNMFDHPIPRVFQNRFSTQYRCFSVSMLAGPNDRSDVEKGGKIIMPPSALDQLSRLNITYPMLFKLTNKNSDRMTHCGVLEFVADEGICYLPHWMMQNLLLEEGGLVQVESVNLQVATYSKFQPQSPDFLDITNPKAVLENALRNFACLTTGDVIAINYNEKIYELRVMETKPDKAVSIIECDMNVDFDAPLGYKEPERQVQHEESTEGEADHSGYAGELGFRAFSGSGNRLDGKKKGVEPSPSPIKPGDIKRGIPNYEFKLGKITFIRNSRPLVKKVEEDEAGGRFVAFSGEGQSLRKKGRKP	soluble
MFSPQAYLIFNMRKPPFDNIKVRQAVMHAFNRKLVVDNIFFGLGKISTSPFVPTEMFFDKDIPAIPFDMKKARALIKESGINPGDYTIRQLSFPYGATWDRLGEYTKQALEQLGFKVNVESTDAGGWASRTGNWDFDLTTTYSYQYGDPALGVQRLYVTSNIVKGSPFANMQGYSNPESDKLWEQAAAEVDPAKRQELYNKIQALLVAEVANGFLVDME	not soluble
MFSSIGWPEIFTVLILGLIIIGPERLPKVIEDVRAAIYAAKKAINNAKEELNGNLGAEFDEFREPINKIASIQRMGPKAVLTKALFDEDENFMDNFDPKKIMASGTEGEAYRERGINPQPAGDSASPQTPSNKESQPKAGFSWDDIT	not soluble
MFSTGSGELCDSSAARAGGSMIHPILAKVTQNLTERSREARAAFIARSQAQEKAGKGRTSLSCGNLAHAVAASCSTEKKAILDFTRSNVAIVTSYNDMLSAHQPYQHYPDRIKMVLAEYGHTAQVAGGVPAMCDGVTQGQPGMDMSLFSRDLIAQATALSLSHNVFDATLLLGICDKIAPGQLMGALSYAHLPTAFMPAGLMATGISNEEKVDIRQKYAAGEVGKDALLNMECQAYHAPGTCTFYGTANTNQLVFEAMGLMLPGSAFVHPHSALRQALNDDATVKIASMTQGSAQYRPLYQVVTEKSLLNGIVALLASGGSTNHTIHMLAVARAAGILLTWQDISDLSDVVPLLAKVYPNGPADMNAFQQAGGVPALMKRLHESKLLHSDVTPVFGEFRDQLTLPELVDGELCWKACEGTRDAQVIAASGECFQTTGGTKMLNGNLGRAVIKVSAVKEEQRIIEAPAVVFQCQHQVEAAYQRGELNKDCIVVVTHNGPAANGMPELHKLMPILGNVQKAGFKVALVTDGRLSGASGKIPSAIHVSPEAVRGGAIGLVRDGDLLRLDCTTGTLENLTDMSHRQALALDTERDQQMWGRELFKVMRQAVSSAEQGASFIV	not soluble
MFVYYIYTIIKSQSKSTPHHYHPCWSNSAAGLKKWGGFMNIKNNRRRRASRDAIENIFIELLQTKSLNEITVSDICKKAGLNRSTFYANYMDIYQLADTIRETLEDNLNDLYRSEIAGGYNSNDYLPLFRHIKENQPFYNTYFKLGYDNQYKIFKYDTALARDHFGNRFIDYHCEFFKSGITAIIKHWLSNGCLETPEEINGILMSEYRGRKMEET	not soluble
MGAAGDAAIGRESRELMSAANVGRTISRIAHQIIEKTALDDPVGPDAPRVVLLGIPTRGVTLANRLAGNITEYSGIHVGHGALDITLYRDDLMIKPPRPLASTSIPAGGIDDALVILVDDVLYSGRSVRSALDALRDVGRPRAVQLAVLVDRGHRELPLRADYVGKNVPTSRSESVHVRLREHDGRDGVVISRGSHHHHHH	soluble
MGAIEDVYADLDTDVSIEEFREAVESKVEQMGGLADEETAAMLIAHEIDDGEVNGVADIDSEMDEVKFIAKVTRVGDVRTFDREDADDDDAAAEGRVVNVTVADETDDVRVSLWDEQATAAADDLAPGDVLRIKGRPTDGYNGLEVSADEVELDADEQIDVQIQDEYDAADLSLGVSDVTLVGEVLDTEAVRTFDRDDGSEGRVSNLVVGDETGRVRVTLWDDQADTATDLDAGAVVEIVDGYVREREGSLELHVGDTGAVTPVPDADVSFVPDTTSIDSLEQDDTADIAGVVRSVDPTRTFDRDDGSEGQVRNVRLQDDTGDIRVALWGEKADLDIGPGDEVAALDVEIQDGWQDDIEASAGWQASVIPLSDSTQDDAAAGSDGPDRGLAAFGADSDDEPAATDDAADTQTPHSDTPVEFTGVVVQAQDPLILDDGEETMSVTTDADVTLGQEVTVRGSLDDGRLHADDVTESLEHHHHHH	not soluble
MGCAEEKKTDVRWATFNIRYDNPQDSLNNWQYRKDRVCQFIKDHELDIVGMQEVLHNQFQDLRAGLPEYDGIGVGRDDGKTAGEYAPLFYRKDKYEVLDSNTFWLAENPDSVGMMGWDAVCVRIATWAKFKDKATGKIFMAVNTHFDHVGEEARRQSALLIIRKIKEIVGERPAVVTGDFNVTDASDAYETITTNEFVMKDAYKTAARVTGVDYTFHDFARIPAEDCEKIDFIFVTPQVLVKSCEIPAEVPEALLSDHNPQLADLELEHHHHHH	not soluble
MGCEPKRDCGCCQNSICEFLQSLEPYTKVESIIIAGNEIAVSYFLSFNKKTGIVSFVQEDNEVIFVDCSKIDAIRIGKVCSCKTKVKYIEEDFSLLGNVCPHCLTEGSTIFFDFNNPELNVSFQATTINPPRCTEFTDDLGNVVKQITIVGEAKVSRDFVQVPELVGFRLLLSHLAGDPLNYGLLFINFPDTIFIFILASSGYLSISNCLKIEGGTGDAEIEEMKKMIEDDVNTYKSVVKLTKVYKNGETESFIYKNEL	not soluble
